Test results published in the supplement of paper PMC7877785.
± gives the uncertainty stated by the source.

Test: self-splicing fitness, log relative to wild type (ln ratio); higher = more splicing; Tetrahymena group I intron in knt gene, E. coli kanamycin selection, DiMSum; sequences stand for … in CUCUCU…GGAGGGAAAAGUUAUCAGGCAUGCACCUGGUAGCUAGUCUUUAAACCAAUAGAUUGCAUCGGUUUAAAAGGCAAGACCGUCAAAUUGCGGGAAAGGGGUCAACAGCCGUUCAGUACCAAGUCUCAGGGGAAACUUUGAGAUGGCCUUGCAAAGGGUAUGGUAAUAAGCUGACGGACAUGGUCCUAACCACGCAGCCAAGUCCUAAGUCAACAGAUCUUCUGUUGAUAUGGAUGCAGUUCACAGACUAAAUGUCGGUCGGGGAAGAUGUAUUCUUCUCAUAAGAUAUAGUCGGACCUCUCCUUAAUGGGAGCUAGCGGAUGAAGUGAUGCAACACUGGAGCCGCUGGGAACUAAUUUGUAUGCGAAAGUAUAUUGAUUAGUUUUGGAGUACUCGUGGUCG
Method in brief: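 Colonies from six replicate transformations of E. coli BL21(DE3) were pooled and amplicon-sequenced on an Illumina HiSeq 2500. The library placed an intron with all eight P1ex-region nucleotides randomised inside the knt kanamycin-resistance gene on pET-22b(+), and cells grew overnight at 37°C or 30°C on LB agar with or without 25 μg/mL kanamycin (plus 100 μg/mL carbenicillin, 50 μM IPTG, 0.2% rhamnose). Fitness is the DiMSum error-weighted combination of wild-type-normalised replicate fold changes, kanamycin versus none.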

Row | Sequence | self-splicing fitness (ln) (30 °C) | self-splicing fitness (ln) (37 °C)
1 | CACUAGCAAUAUUACGUGCU | -3.69 ± 0.2 | -2.55 ± 0.15
2 | CACUAGCAAUAUUACGUUUA | -4.15 ± 0.23 | -2.68 ± 0.17
3 | CAGAAGCAAUAUUACGAAAC | -4.4 ± 0.46 | -2.18 ± 0.32
4 | CAGAAGCAAUAUUACGAAUG | -2.6 ± 0.14 | -0.683 ± 0.13
5 | CAGAAGCAAUAUUACGACAA | -2.84 ± 0.36 | -1.88 ± 0.31
6 | CAGAAGCAAUAUUACGACCU | -2.86 ± 0.4 | 0.0264 ± 0.23
7 | CAGAAGCAAUAUUACGCAGU | -2.53 ± 0.19 | -3.48 ± 0.23
8 | CAGAAGCAAUAUUACGCCCU |  | -1.83 ± 0.43
9 | CAGAAGCAAUAUUACGCCUC |  | -0.543 ± 0.28
10 | CAGAAGCAAUAUUACGCUUC |  | -3.54 ± 0.4
11 | CAGAAGCAAUAUUACGGAAA |  | -2.45 ± 0.36
12 | CAGAAGCAAUAUUACGGACA | -1.93 ± 0.16 | -0.876 ± 0.13
13 | CAGAAGCAAUAUUACGGCAC | -3.44 ± 0.41 | -1.87 ± 0.32
14 | CAGAAGCAAUAUUACGGCCC | -2.98 ± 0.44 | 
15 | CAGAAGCAAUAUUACGGCUA | 0.172 ± 0.11 | -0.0647 ± 0.084
16 | CAGAAGCAAUAUUACGGCUU | -3.46 ± 0.21 | -3.66 ± 0.29
17 | CAGAAGCAAUAUUACGGGGC | -3.13 ± 0.17 | -2.89 ± 0.27
18 | CAGAAGCAAUAUUACGGUGA | -2.21 ± 0.096 | -1.13 ± 0.1
19 | CAGAAGCAAUAUUACGGUUU | -2.93 ± 0.093 | -2.83 ± 0.12
20 | CAGAAGCAAUAUUACGUACC | -2.33 ± 0.24 | -1.55 ± 0.27
21 | CAGAAGCAAUAUUACGUAGC | -3.8 ± 0.27 | -3.32 ± 0.28
22 | CAGAAGCAAUAUUACGUCCC | -2.92 ± 0.3 | -1.49 ± 0.28
23 | CAGAAGCAAUAUUACGUCGG | -1.61 ± 0.14 | -0.979 ± 0.2
24 | CAGAAGCAAUAUUACGUCUG | -3.35 ± 0.16 | -3.09 ± 0.21
25 | CAGAAGCAAUAUUACGUCUU | -1.7 ± 0.089 | -0.306 ± 0.11

Row | Sequence | self-splicing fitness (ln) (30 °C) | self-splicing fitness (ln) (37 °C)
26 | CAGAAGCAAUAUUACGUUAC |  | -2.72 ± 0.2
27 | CAGAAGCAAUAUUACGUUAU | -3.44 ± 0.35 | -2.75 ± 0.28
28 | CAGAAGCAAUAUUACGUUUA | -3.13 ± 0.18 | -1.95 ± 0.12
29 | CAGCAGCAAUAUUACGAAUU | -4.16 ± 0.27 | -2.23 ± 0.23
30 | CAGCAGCAAUAUUACGAGCC |  | -1.48 ± 0.23
31 | CAGCAGCAAUAUUACGAUGU | -4.21 ± 0.22 | -2.6 ± 0.15
32 | CAGCAGCAAUAUUACGAUUG | -2.36 ± 0.093 | -0.731 ± 0.09
33 | CAGCAGCAAUAUUACGCACU | -0.834 ± 0.1 | -1.8 ± 0.12
34 | CAGCAGCAAUAUUACGCCCU | -1.89 ± 0.1 | 0.0797 ± 0.13
35 | CAGCAGCAAUAUUACGCCGG | -0.792 ± 0.09 | -0.31 ± 0.098
36 | CAGCAGCAAUAUUACGCCUG | -3.7 ± 0.22 | -2.35 ± 0.21
37 | CAGCAGCAAUAUUACGCGAU | -3.91 ± 0.22 | -1.83 ± 0.17
38 | CAGCAGCAAUAUUACGCGGC | -4.03 ± 0.27 | -2.95 ± 0.18
39 | CAGCAGCAAUAUUACGCUAU | -2.47 ± 0.27 | -2 ± 0.18
40 | CAGCAGCAAUAUUACGCUCG | -1.95 ± 0.16 | -0.385 ± 0.21
41 | CAGCAGCAAUAUUACGCUGA | -3.02 ± 0.22 | -2.09 ± 0.18
42 | CAGCAGCAAUAUUACGGAGG | -1.19 ± 0.082 | -0.627 ± 0.12
43 | CAGCAGCAAUAUUACGGCAU | -0.874 ± 0.074 | -0.81 ± 0.096
44 | CAGCAGCAAUAUUACGGCCC | -0.505 ± 0.15 | -0.0529 ± 0.23
45 | CAGCAGCAAUAUUACGGGCA | -2.11 ± 0.095 | -1.07 ± 0.099
46 | CAGCAGCAAUAUUACGGGUU | -4.98 ± 0.26 | -1.6 ± 0.13
47 | CAGCAGCAAUAUUACGGUUU | -0.8 ± 0.062 | -0.225 ± 0.084
48 | CAGCAGCAAUAUUACGUAAC | -4.17 ± 0.39 | -2.88 ± 0.32
49 | CAGCAGCAAUAUUACGUACC | -3.85 ± 0.16 | -2.46 ± 0.16
50 | CAGCAGCAAUAUUACGUACU | -2.54 ± 0.24 | -2.5 ± 0.32
